In one experiment the target is T1, Human CD3ε (human, UniProt P07766 23-126).
T1 construct: CD3 on T cells isolated from human whole blood
Kind of experiment: flow cytometry, human T cells. The gist of the method: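 Antigen-positive tumor cells or isolated T cells, 2×10⁵/well, 1% FBS-PBS, on ice. Ab 3000 nM top, 3-fold ×11, 2 h 4° C shaking; wash; PE anti-hIgG Fc 8 ug/ml, 1 h 4° C. FACS MFI; EC50, one site–specific binding.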
(In general: Flow cytometry measures light scatter and fluorescence of single cells or particles in a stream.)

For the next experiment, the target named is T2, human CEA (human, UniProt P06731 35-685).
T2 sequence: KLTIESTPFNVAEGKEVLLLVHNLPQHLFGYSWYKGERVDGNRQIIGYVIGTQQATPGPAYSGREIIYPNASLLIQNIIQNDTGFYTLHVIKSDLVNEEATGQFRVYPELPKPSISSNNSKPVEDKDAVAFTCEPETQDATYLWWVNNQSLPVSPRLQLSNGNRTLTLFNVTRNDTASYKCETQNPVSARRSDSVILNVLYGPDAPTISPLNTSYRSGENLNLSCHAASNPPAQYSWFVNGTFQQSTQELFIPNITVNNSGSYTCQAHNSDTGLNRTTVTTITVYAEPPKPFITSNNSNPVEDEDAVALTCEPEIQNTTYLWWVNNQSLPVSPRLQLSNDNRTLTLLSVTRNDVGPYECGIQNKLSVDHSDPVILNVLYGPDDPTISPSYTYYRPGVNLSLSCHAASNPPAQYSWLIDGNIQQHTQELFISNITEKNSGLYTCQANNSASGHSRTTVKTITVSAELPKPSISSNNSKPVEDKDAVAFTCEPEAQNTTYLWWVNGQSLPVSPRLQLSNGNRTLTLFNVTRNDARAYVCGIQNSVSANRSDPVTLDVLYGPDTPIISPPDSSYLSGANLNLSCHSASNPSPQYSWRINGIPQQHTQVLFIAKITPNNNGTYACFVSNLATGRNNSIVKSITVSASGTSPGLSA
Kind of experiment: flow cytometry, human tumor cells (table of the CEA series). The text has this:
1) Cell preparation: T cells isolated from CD3-positive human whole blood were used for a CD3 end affinity detection of multifunctional antibody molecule; positive tumor cells of corresponding antigen were used for detecting affinity of tumor antigen; for example, CD38-positive MM. 1S cells (purchased from the Cell Resource Center of Shanghai Institutes for Biological Sciences, Chinese Academy of Sciences) or RPMI 8226 cells (purchased from the Cell Resource Center of Shanghai Institutes for Biological Sciences, Chinese Academy of Sciences) were used for CD38 antigen detection, and PD-L1 positive H358 cells (purchased from the Cell Resource Center of Shanghai Institutes for Biological Sciences, Chinese Academy of Sciences) were used for PD-L1 antigen detection, and so on. The cells were resuspended with 1% FBS-PBS, adjusted to a density of 4×10⁶/ml, and 50 μl of cells were taken from each well, and then plated at 2×10⁵ per well. Cell plating was operated on ice
2) Addition of the antibody: according to the experimental design, the antibody was diluted gradually, and dilution of antibody was operated on ice. For example, the initial concentration of antibody for dilution was 3000 nM, and the antibody was diluted by 3 times with 11 concentration gradients. The diluted antibody was added to a cell well at 50 μl per well, mixed well, and shaked and incubated at 4° C. 1100 rpm/min for 2 h; after washing, the cells were resuspend in 1% FBS-PBS, and a diluted secondary antibody PE anti-human IgG FC (Biolegend, 409304) was added with a final concentration of 8 ug/ml and a volume of 50 μl/well. At the same time, a well only added with cells and secondary antibody was set as a control, the components were mixed well, and incubated under shaking at 1100 rpm/min at 4° C. for 1 h;
5) Data analysis: the data was analyzed by a flow analysis software FlowJo 7.6 thereby obtaining an average fluorescence intensity of the specific antibody concentration, plotted by a Graphpad Prism 5 with the antibody concentration (nM) as an abscissa and the average fluorescence intensity as an ordinate; the EC50 value was calculated by the method of One site—Specific binding, and the EC50 value indicated the cell affinity of the antibody to the corresponding target antigen.

B1: M3IC-PG2 (bispecific antibody)
chain 1: EVKLDETGGGLVQPGRPMKLSCVASGFTFSDYWMNWVRQSPEKGLEWVAQIRNKPYNYETYYSDSVKGRFTISRDDSKSSVYLQMNNLRVEDMGIYYCTGSYYGMDYWGQGTSVTVSSASTKGPSVFPLAPSSKSTSGGTAALGCLVKDYFPEPVTVSWNSGALTSGVHTFPAVLQSSGLYSLSSVVTVPSSSLGTQTYICNVNHKPSNTKVDKKVEPKSCGGGGSGGGGSQVQLVESGGGVVQPGRSLRLSCAASGFTFSTYAMNWVRQAPGKGLEWVARIRSKYNNYATYYADSVKDRFTISRDDSKNTLYLQMNSLRAEDTAVYYCARHGNFGNSYVSWFAYWGQGTLVTVSSASVAAPSVFIFPPSDEQLKSGTASVVCLLNNFYPREAKVQWKVDNALQSGNSQESVTEQDSKDSTYSLSSTLTLSKADYEKHKVYACEVTHQGLSSPVTKSFNRGECDKTHTCPPPPAPPVAGPSVFLFPPKPKDTLMISRTPEVTCVVVDVSHEDPEVQFNWYVDGVEVHNAKTKPREEQFNSTFRVVSVLTVVHQDWLNGKEYKCKVSNKGLPAPIEKTISKTKGQPREPQVYTLPPCRDELTKNQVSLWCLVKGFYPSDIAVEWESNGQPENNYKTTPPVLDSDGSFFLYSKLTVDKSRWQQGNVFSCSVMHEALHNHYTQKSLSLSPGK
chain 2: QTVVTQEPSLTVSPGGTVTLTCRSSTGAVTTSNYANWVQQKPGQAPRGLIGGTNKRAPGVPARFSGSLLGGKAALTLSGVQPEDEAEYYCALWYSNLWVFGGGTKVEIKSSASTKGPSVFPLAPSSKSTSGGTAALGCLVKDYFPEPVTVSWNSGALTSGVHTFPAVLQSSGLYSLSSVVTVPSSSLGTQTYICNVNHKPSNTKVDKKVEPKSC
heavy: EVKLDETGGGLVQPGRPMKLSCVASGFTFSDYWMNWVRQSPEKGLEWVAQIRNKPYNYETYYSDSVKGRFTISRDDSKSSVYLQMNNLRVEDMGIYYCTGSYYGMDYWGQGTSVTVSSASTKGPSVFPLAPSSKSTSGGTAALGCLVKDYFPEPVTVSWNSGALTSGVHTFPAVLQSSGLYSLSSVVTVPSSSLGTQTYICNVNHKPSNTKVDKKVEPKSCDKTHTCPPPPAPPVAGPSVFLFPPKPKDTLMISRTPEVTCVVVDVSHEDPEVQFNWYVDGVEVHNAKTKPREEQFNSTFRVVSVLTVVHQDWLNGKEYKCKVSNKGLPAPIEKTISKTKGQPREPQVCTLPPSRDELTKNQVSLSCAVKGFYPSDIAVEWESNGQPENNYKTTPPVLDSDGSFFLVSKLTVDKSRWQQGNVFSCSVMHEALHNRFTQKSLSLSPGK
light: DVVMTQTPLSLPVSLGDQASISCRSSQSLVHSNGNTYLRWYLQKPGQSPKVLIYKVSNRFSGVPDRFSGSGSGTDFTLKISRVEAEDLGVYFCSQSTHVPWTFGGGTKLEIKRTVAAPSVFIFPPSDEQLKSGTASVVCLLNNFYPREAKVQWKVDNALQSGNSQESVTEQDSKDSTYSLSSTLTLSKADYEKHKVYACEVTHQGLSSPVTKSFNRGEC
notes: structure 3 isotype control; CH2 PG2CH2
Regarding B1, a half-maximal response with Human CD3ε (EC50) required 696 nM. Moreover, in the experiment with human CEA, the binding result is “no binding”.

Broadly, the EC50 is the concentration that produces a half-maximal response. Higher therefore signals a need for much substance.

(Values after patent US20220098307A1 (WUHAN YZY BIOPHARMA, published 2022).)
